SMILES strings stand for the structures. Peptide text beside a SMILES is read from it. * marks the point of attachment. DOTA = O=C(O)CN1CCN(CC(=O)O)CCN(CC(=O)*)CCN(CC(=O)O)CC1

Experimental findings from PMC9697189, “Peptide-Based [^68Ga]Ga Labeled PET Tracer for Tumor Imaging by Targeting Tumor-Associated Macrophages” (Pharmaceutics, 2022) are described below.

Data set [1] is described as follows: in vivo. The settings on record: male, C57B/L6, mouse, iv, 3.7 MBq, total radioactivity. Set-up: species or system C57B/L6 mice. The procedure:
(§1) The male C57B/L6 mice (6–8 weeks old, 20–25 g) were purchased from HFK bioscience (Beijing, China) and divided randomly into the experimental and blocking groups. All the studies were approved by the experimental animal ethics committee of Sichuan University and were conducted in compliance with the institutional guidelines for the care and use of laboratory animals. The C57B/L6 mice were injected subcutaneously with 5 × 10^6 B16-F10 cells in 100 µL of PBS into the forelimb of the animals under anesthesia with isoflurane. After 7–10 days, the B16F10 tumor-bearing mice were established and prepared for imaging and biodistribution when xenografts grew to 500–1000 mm^3.
(§2) PET scans were performed using a micro-PET/CT scanner (Inviscan, IRIS, Paris, France). [^68Ga]Ga-DOTA-M2pep (3.7 MBq) was administered to the B16F10 tumor-bearing mice (n = 4) via the tail vein. At 30 min, 1 h, and 2 h post-injection, the tumor-bearing mice were imaged with the micro-PET/CT scan under anesthesia with 2% isoflurane. Each scan was completed within 15 min. For the blocking scans, B16F10 tumor-bearing mice (n = 3) were pretreated with free M2pep (10 mM) in 100 μL saline by intravenous injection 60 min before administration of [^68Ga]Ga-DOTA-M2pep (3.7 MBq). Micro-PET/CT scans were acquired at 60 min post-injection as described above. The obtained images were reconstructed using three-dimensional ordered-subset expectation maximization (3D OSEM) and then processed using Osirix MD. Regions of interest (ROIs) were manually drawn over the tumor regions and organs, and quantitative analyses were calculated. Immunofluorescence staining was performed 24 h after micro-PET scan to determine the [^68Ga]Ga-DOTA-M2pep targeting efficiency. The harvested tumors were fixed with paraformaldehyde for 24 h, then were frozen and sectioned at 10 μm, followed by treatment with Fitc-M2pep, and staining with M2 TAMs marker PE-CD206 antibody and DAPI.

For data set [2], the system named is B16F10 tumor-bearing mice. The data set is described as follows: in vivo. The settings on record: mouse. Set-up: species or system C57B/L6 mice. The procedure: as §1, §2
Data set [3] in a line: in vivo. Further details: species or system C57B/L6 mice. The settings on record: male, C57B/L6, mouse, iv, 1.11 MBq, total radioactivity. The procedure:
The male C57B/L6 mice (6–8 weeks old, 20–25 g) were purchased from HFK bioscience (Beijing, China) and divided randomly into the experimental and blocking groups. All the studies were approved by the experimental animal ethics committee of Sichuan University and were conducted in compliance with the institutional guidelines for the care and use of laboratory animals. The C57B/L6 mice were injected subcutaneously with 5 × 10^6 B16-F10 cells in 100 µL of PBS into the forelimb of the animals under anesthesia with isoflurane. After 7–10 days, the B16F10 tumor-bearing mice were established and prepared for imaging and biodistribution when xenografts grew to 500–1000 mm^3. The B16F10 tumor-bearing mice (n = 3) were intravenously administered [^68Ga]Ga-DOTA-M2pep (1.11 MBq) for biodistribution studies. At 5, 15, 30, 60 min, and 2 h post-injection, mice were euthanized, and the organs of interest, including the blood, heart, lungs, liver, kidneys, spleen, stomach, intestine, muscle, bone, brain, and tumor, were harvested. The samples were then weighed and counted by an automatic γ-counter (PerkinElmer Wizard, Shelton, CT, USA). In the blocking group, the B16F10 tumor-bearing mice (n = 3) were pretreated with free M2pep (10 mM) in 100 μL saline by intravenous injection 60 min before administration of [^68Ga]Ga-DOTA-M2pep (1.11 MBq). The organs of interest were harvested, weighed, and counted as described above at 60 min post-injection. The percentage of tracer uptake was calculated as the percentage of injected dose per gram of tissue (%ID/g), which was decay-corrected to the start time of counting. The percentage reflected the activity associated with tissues per organ weight per actual injected dose.

The nature of a further data set: in vitro. It counts as in vitro ADME, bovine. The settings on record: serum. Here is the method:
DOTA-M2pep (80 μg) was dissolved in 200 μL of purified water in a small vial. About 200 μL of [^68Ga]GaCl3 (44.4–59.2 MBq) was added, and 1 M sodium acetate buffer was used to adjust the final pH to 4.0–4.5. After incubation in a water bath at 55 °C for 30 min, the radiolabeling reaction was completed, and the mixture was collected. Radio-HPLC was performed to confirm the radiochemical purity of [^68Ga]Ga-DOTA-M2pep. The mobile phase was composed of solvent A, acetonitrile (ACN) solution, and solvent B, 0.1% trifluoroacetic acid (TFA) in water. The gradient solvent system was set up as follows: 0–8 min, 70% A and 30% B; 8–15 min, 100% A and 0% B; 15–17 min, 5% A and 95% B; 17–20 min, 95% A and 5% B at a flow rate of 1.0 mL/min. To investigate the in vitro stability, 3.7 MBq [^68Ga]Ga-DOTA-M2pep (100 μL) was incubated in the same volume of phosphate-buffered saline (PBS, pH = 7.4) or bovine serum at 37 °C, respectively. The radiochemical purity was assessed at 15, 30, 60, and 120 min. All experiments were performed in triplicate.

Consider `CC(C)[C@H](NC(=O)CNC(=O)[C@H](Cc1c[nH]c2ccccc12)NC(=O)[C@@H]1CCCN1C(=O)[C@H](CC(=O)O)NC(=O)[C@H](CCC(N)=O)NC(=O)[C@H](CCC(=O)O)NC(=O)[C@H](Cc1ccc(O)cc1)NC(=O)CN1CCN(CC(=O)O)CCN(CC(=O)O)CCN(CC(=O)O)CC1)C(=O)N[C@@H](CCCCN)C(=O)N[C@@H](Cc1c[nH]c2ccccc12)C(=O)N[C@@H](Cc1c[nH]c2ccccc12)C(=O)N[C@@H](Cc1ccc(O)cc1)C(=O)O` [[^68Ga]Ga-DOTA-M2pep, metal not drawn] ({DOTA}-YEQDPWGVKWWY-OH), for which, in the data set “in vivo [1]”, the tissue to tissue ratio at 0.5 h was 3.19 ± 0.22, the tissue to tissue ratio at 2 h turned out to be 3.12 ± 0.83, the tissue uptake at 0.5 h was found to be 2.72 ± 0.07 %ID/g and the tissue uptake at 1 h was determined as 2.93 ± 0.2 %ID/g. In addition, the tissue uptake at 2 h in “in vivo [1]” was determined as 2.47 ± 0.13 %ID/g. Further, in data set [2], the “tumor/muscle ratio (PET)” value is reported as 3.35 ± 0.27. In the data set “in vivo [3]” (blood uptake), the tissue uptake at 5 min came to 10.5 ± 2.2 %ID/g and the tissue uptake at 1 h came to 1.84 ± 0.02 %ID/g. The tissue uptake at 5 min in “in vivo [3]” (kidney uptake (peak)) was 12.7 ± 3.71 %ID/g. In the data set “in vivo [3]” (liver uptake), the tissue uptake at 1 h stood at 0.96 ± 0.02 %ID/g. Moreover, in “in vivo [3]” (tumor uptake), the tissue uptake at 1 h was 3.35 ± 0.34 %ID/g and the tissue uptake at 2 h stood at 3.12 ± 0.27 %ID/g. For the same compound, the share remaining at 2 h, 18.5 MBq/mL in the data set “in vitro” was greater than 85%.

By tissue uptake is commonly meant the percentage of the injected dose found per gram of tissue. Usually amount remaining stands for the share of the starting amount still present when the sample was taken.
